The source of these data is patent US20260022171A1.

The target in test [1] is human CD200R1 on cells (human) (UniProt Q8TD46). As to the kind of experiment: flow cytometry, biotinylated antibody on human CD8+ T cells (pan T cells of a healthy donor), streptavidin-PE, geometric mean; unit from the axis log M.
The target is the same in test [2]. Kind of test: flow cytometry, biotinylated antibody on human CD4+ T cells (pan T cells of a healthy donor), streptavidin-PE, geometric mean; unit from the axis Log M. A general note: In flow cytometry, cells or beads pass a laser one at a time.
Test [3] has the same target. Kind of test: flow cytometry, blocking: U937 cells stably expressing hu-CD200R1 incubated with the antibody, then with 55 nM huCD200-Fc-Flag, detected with anti-Flag PE (MFI).
Test [4] has the same target. As to the kind of experiment: cell-based or functional assay.
Test [5] concerns the target cynomolgus monkey CD200R1 on cells (cynomolgus monkey). As to the kind of experiment: cell-surface binding, cynomolgus CD4+ T cells.
For test [6] the target is unchanged. As to the kind of experiment: flow cytometry, biotinylated antibody on cynomolgus monkey CD4+ T cells (PBMC), streptavidin-PE, MFI; monkey #0023.
Test [7] shares this target. As to the kind of experiment: flow cytometry on cynomolgus monkey CD4+ T cells.
The target is the same in test [8]. Kind of test: flow cytometry, biotinylated antibody on cynomolgus monkey CD4+ T cells (PBMC), streptavidin-PE, MFI; monkey #143.
Test [9] has the same target. Kind of test: flow cytometry, biotinylated antibody on cynomolgus monkey CD4+ T cells (PBMC), streptavidin-PE, MFI; monkey #0013.
The target is the same in test [10]. As to the kind of experiment: cell-surface blocking, MfCD200-Fc on K562 cells expressing MfCD200R1.

B1: h22.1 (humanized 22.1 IgG) (antibody, V domains shown)
VH: EVQLVQSGAEVKKPGASVKVSCKASGYTFTSYVMFWVRQAPGQRLEWIGYINPYNDDTKYNEKFKGRATLTSDKSASTAYMELSSLRSEDTAVYYCAREDYYGSRFVYWGQGTLVTVSS
VL: DIQLTQSPSSLSASVGDRVTITCRASKSVSTSGYSYMHWYQQKPGKPPKLLIYLASNLESGVPSRFSGSGSGTDFTLTISSLQPEDFATYYCQHNRELLTFGGGTKVEIKR
Usually EC50 stands for the concentration that produces a half-maximal response. The IC50 is the concentration that gives 50% inhibition. For B1, the EC50 in test [1] was found to be 1.91 nM; in test [2], 3.04 nM. The molecule further registered an IC50 in test [3] of 1.8 nM. In addition, the pDok2 induction, western blot, U937 cells expressing CD200R1 in test [4] is 5.6 nM.

B2: h10F6.V1 (antibody, IgG1, V domains shown)
VH: EVQLQESGPGLVKPSETLSLTCTVSGFSLTNYRVSWVRQPPGKGLEWLGVMYAGGGTNYNSVFKSRLTISKDNSKNQVSLKLSSVTAADTAVYYCARERPLTGVMDNWGQGTLVTVSS
VL: DIVLTQSPDSLAVSLGERATINCRASESVDYSGNSFMHWFQQKPGQPPKLLIYRASNLESGIPDRFSGSGSRTDFTLTISSLQAEDVAVYYCHQSNWDPPTFGGGTKVEIKR
In general, EC50 (read off the curve) refers to the midpoint of the concentration-response curve. B2: the figures for the EC50 in test [5] and in [7] were 1.3 nM and 0.34 to 1.54 nM, respectively. The values for the EC50 (read off the curve) in test [6], in test [8] and in test [9] were 0.9 nM, 1 nM and 1 nM, respectively. Besides, in [10], the IC50 came to 0.5 nM.
